Consider one molecule from patent US20250136687A1 (SHANDONG SIMCERE BIOPHARMACEUTICAL, published 2025).

The term EC50 denotes the midpoint of the concentration-response curve. As a reminder, the Kd is the concentration at which binding is half-saturated. Broadly, the koff is the rate constant with which the complex falls apart. A word on the kon: it is the second-order rate constant of association.

Like-named read-outs stand apart in the source and are kept apart here.

Assay [1] deals with T1, cynomolgus monkey CD3 on the surface of expanded monkey T cells (cynomolgus monkey, UniProt Q95LI5 22-198; Q95LI8 22-171; Q95LI7 23-181).
T1 construct: whole, on cells; Endogenous CD3 within the TCR-CD3 complex on T cells expanded from cynomolgus monkey PBMC
The assay can be described thus: FACS, expanded monkey T cells. How it is done: (§1) The binding of the chimeric antibodies to CD3 on the cell surface was analyzed by detecting the binding of the antibodies to Jurkat cells and human T cells. Suspension cells Jurkat cells were scale-up cultured in T-75 cell culture flasks to the logarithmic growth phase, the supernatant of the medium was discarded by centrifugation, and the cell pellet was washed 2 times with PBS for later use. The expanded human T cells were washed 2 times with PBS for later use. After counting the cells in the previous step, the cell pellet was resuspended with [PBS+2% (w/w) BSA] blocking solution to 4×10⁶ cells/ml, and added to a 96-well FACS reaction plate at 50 μl/well, and then the chimeric antibody to be tested was added at 50 μl/well, and incubated at 4° C. for 1 h. The cells were centrifuged and washed 3 times with a PBS buffer. […] The cells were centrifuged and washed 5 times with PBS, and FACS (FACS Canto™, purchased from BD Company) was used for detection and result analysis. Data analysis was performed by software (CellQuest) to obtain the mean fluorescence […] (MFI) of the cells. And then software (GraphPad Prism8) was used for analysis, data fitting, and EC50 value calculation. The same method was used to simultaneously detect the binding of the chimeric antibodies to endogenous CD3 negative cells MOLT4 cells.
(§2) FACS detection and data analysis were performed on the cryopreserved monkey T cells of Example 2.4 according to the method in Example 5.1.

Assay [2] addresses T1, cynomolgus monkey CD3 on the surface of …. The assay can be described thus: FACS, expanded monkey T cells. As for the experimental part: as §1, §2
This is another data set of the same source. (In flow cytometry, cells or beads pass a laser one at a time.)

Assay [3] has the same target. Kind of assay: FACS, expanded monkey T cells. As for the experimental part: as §1, with “MOLT4 cells. […]” for “MOLT4 cells.”
The source holds these as a separate data set.

Assay [4] addresses T2, recombinant human CD3ε-ECD His protein (human, UniProt P07766 23-126).
T2 construct: extracellular domain; also called human CD3ε-His; CD3ε antigen protein; not shown: His tag
Kind of assay: SPR (Biacore), antibody captured on Protein A chip. On the technique in general: SPR reads the build-up and loss of mass on a sensor chip optically.

T1 sequence (Q95LI5 22-198, chain 1 of 3): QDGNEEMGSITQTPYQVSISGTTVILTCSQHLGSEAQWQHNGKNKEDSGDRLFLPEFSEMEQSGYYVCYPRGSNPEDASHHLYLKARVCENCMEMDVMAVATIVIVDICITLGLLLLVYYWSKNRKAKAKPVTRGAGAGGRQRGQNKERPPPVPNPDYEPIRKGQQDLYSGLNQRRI
T1 sequence (Q95LI8 22-171, chain 2 of 3): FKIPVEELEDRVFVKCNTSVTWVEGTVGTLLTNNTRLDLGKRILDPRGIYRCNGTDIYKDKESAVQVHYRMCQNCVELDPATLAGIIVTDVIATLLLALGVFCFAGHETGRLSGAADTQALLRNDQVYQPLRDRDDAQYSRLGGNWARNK
T1 sequence (Q95LI7 23-181, chain 3 of 3): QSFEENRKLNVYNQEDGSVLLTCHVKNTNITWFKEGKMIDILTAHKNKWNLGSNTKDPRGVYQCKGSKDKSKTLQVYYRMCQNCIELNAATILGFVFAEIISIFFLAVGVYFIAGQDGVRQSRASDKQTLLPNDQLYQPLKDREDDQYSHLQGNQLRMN
T2 sequence (P07766 23-126): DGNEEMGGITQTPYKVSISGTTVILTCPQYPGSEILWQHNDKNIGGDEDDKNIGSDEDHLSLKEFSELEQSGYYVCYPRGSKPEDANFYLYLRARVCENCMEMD

B1: 40G5c-hIgG1 (antibody, V domains shown)
VH: EVQLVQSGAEVKKPGASVKVSCKASGYTFTNYYIHWVRQAPGQGLEWIGWIYPGDGNTKYNEKFKGRATLTADTSTSTAYLELSSLRSEDTAVYYCARDSYSNYYFDYWGQGTLVTVSS
VL: DIVMTQSPDSLAVSLGERATINCKSSQSLLNSRTRKNYLAWYQQKPGQPPKLLIYWASTRESGVPDRFSGSGSGTDFTLTISSLQAEDVAVYYCTQSFILRTFGQGTKVEIKR
In assay [1], B1 gave an EC50 of 0.63 nM and an MFI_Max of 24100 MFI. Besides, in assay [2], a half-maximal response (EC50) required 0.28 nM and the MFI_Max came out at 66000 MFI. The molecule also had an EC50 in assay [3] of 0.53 nM. Moreover, in assay [4], the Kd turned out to be 0.203 nM, the koff was determined as 0.000321 s⁻¹ and the kon came out at 1.58e+06 M⁻¹ s⁻¹.
